Laboratory results published in US20180148496A1 (HUAHUI HEALTH, published 2018).
Changes are numbered by the printed parent chain.

Assays:
[1] = target: T1, NC36b: peptide comprising residues 4-38 of the pre-S1 domain of HBV L protein with a biotin modification at … (Hepatitis B virus (genotype  …, C-terminal K-Biotin)); assay: ELISA on peptide captured by streptavidin
T1 peptide: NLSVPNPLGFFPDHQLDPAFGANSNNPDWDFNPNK

[2] = target: pre-S1 domain of the L envelope protein on HBV (genotype C) virus (Hepatitis B virus genotype C); assay: cell-based or functional assay
[3] = target: pre-S1 domain of the L envelope protein on HBV (genotype B) virus (Hepatitis B virus genotype B); assay: cell-based or functional assay
[4] = target: pre-S1 domain of the L envelope protein on HBV (genotype D) virus (Hepatitis B virus genotype D); assay: cell-based or functional assay

B1: m1Q (antibody, V domains shown)
VH: QVQLVESGGGVVQPGRSLRLSCAASGFTFSSYAMHWVRQAPGKGLEQVAVISYDGSNKYYVDSVKGRFTISRDNSKNTLYLQMNSLRAEDTAVYYCARSTYGMDVWGQGTTVTVSS
VL: DVVMTQSPLSLPVTLGQSASISCRSSQSLVHSDGNTYLNWFQQRPGQSPRRLIYKVSNRDSGVPDRFSGSGSDTDFTLEISRVEAEDVGIYYCMQGTHWWTFGQGTKLDIK
notes: also called m10Q (label of the VL entry)
binding result [1]: binds

B2: m36 (antibody, V domains shown)
VH: QMQLVQSGGGLVQPGRSLRLSCAASGFTFDDYAMHWVRQAPGKGLEWVSGISWNSGSIGYADSVKGRFTISRDNAKNSLYLQMNSLRAEDTALYYCAKTSYGGAFDIWGQGTMVTVSS
VL: QPVLTQSPSASGTPGQRVTISCSGNTSNIGSYYAYWYQQLPGTAPKLLIYDNNQRPSGIPARFSGSKSGTSASLAISGLQSEDEADYYCATWDDSLNGPVFGGGTKVTVL
binding result [1]: binds

B3: A14 (antibody, V domains shown)
VH: QVQLQQSGPGLVKPSQTLSLTCAISGDSVSSNSAAWNWIRQSPSRGLEWLGRTYYRSKWYNDYAVSVKSRITINPDTSKNQFSLQLNSVTPEDTAVYYCARGTRWGMDVWGQGTLVTVSS
VL: QSVLTQPPSASGTPGQRVTISCSGSSSNIGSYYVYWYQQFPGTAPKLLIYGNNQRPSGVPDRFSGSKSGTSASLAITGLQAEDEADYYCQSYDSSLSGVIFGGGTKLTVL
IC50 of HBV neutralization, genotype C [2]: 30 pM
IC50 of HBV neutralization, genotype B [3]: 80 pM
HBV (genotype D) neutralization activity, against HBIG [4]: > 1000 fold
IC50 of HBV neutralization, genotype D [4]: 10 pM

B4: #8 (antibody, V domains shown)
VH: B3 VH
VL: QSVVTQPPSVSAAPGQKVTISCSGSSSNIGNYYVSWYQHLPGTAPKLLIYDNAKRPSGIPDRFSGSKSGTSATLGITGLRAEDEADYYCQSYDNSLSGLVFGGGTKLTVL
HBV (genotype D) neutralization, against A14 [4]: 5 fold

B5: 2H5 (antibody, V domains shown)
VH: B3 VH with A23G, N32K, Y60H, T103Q, R104M, W105G, G106A, M107L, L115T
VL: B3 VL
IC50 in HBV infection assay, against KR127 [4]: 11 fold
